The values that follow come from patent US20220105179A1 (published 2022).

This assay concerns the target NEUFcε (Arthrobacter urefaciens;mouse, UniProt P06336 99-421). Nature of the assay: BLI. A general note: Biolayer interferometry detects binding as a change in optical thickness at a sensor tip.

B1: hFcεRIα (receptor)
chain: VPQKPKVSLNPPWNRIFKGENVTLTCNGNNFFEVSSTKWFHNGSLSEETNSSLNIVNAKFEDSGEYKCQHQQVNESEPVYLEVFSDWLLLQASAEVVMEGQPLFLRCHGWRNWDVYKVIYYKDGEALKYWYENHNISITNATVEDSGTYYCTGKVWQLDYESEPLNITVIKAPREKYWLQ
Molecule B1 returned a Kd of less than 1 pM.

By Kd is commonly meant the constant that tells how readily two partners part at equilibrium. Read a low Kd as a tighter complex.
